Test results: patent publication JP2017014112A (dated 2017)
Residue numbers refer to the chain shown, from its start.

B1: 精製したVHH抗体(R7-A), C-terminal His×6, secreted from Brevibacillus (VHH)
VHH: EVQLVESGGGSVQAGGSLRLSCAASGVSNTDMIMIWFRQAPGKEREGVLAAIYKNSTYYADSVKGRFTISQDNAKNTVYLQMNSLKPEDTAIYYCAAIRAVIGRHIRPHIYWGQGTQVTVGG
notes: Expressed with the Brevibacillus secretion system and purified on Ni Sepharose
B2: R7-AのDNA断片にコードされるVHH抗体 (cell-free translated, on the nucleic acid linker) (VHH)
VHH: B1 VHH
modifications: C-terminus covalently bound to the puromycin of the nucleic acid linker (linker carries biotin and fluorescein)
notes: Made in rabbit reticulocyte lysate and held on streptavidin magnetic beads through the linker for the pull-down; also called VHH抗体タンパク質120
B3: R7-DのDNA断片にコードされるVHH抗体 (VHH)
VHH: B1 VHH with R99A, A100F, V101N, I102G, G103H, R104N, I106P, R107I, P108L, H109T
modifications: C-terminus covalently bound to the puromycin of the nucleic acid linker (linker carries biotin and fluorescein)
notes: Cell-free translated, on the nucleic acid linker, as bait in the pull-down
B4: R7-BのDNA断片にコードされるVHH抗体 (VHH)
VHH: EVQLVESGGGSVQAGGSLRLSCAASGIPIQDSVVLWFRQAPGKEREGVLAAKYRSPTYYADSVKGRFTISQDNAKNTVYLQMNSLKPEDTAIYYCAAIRAVIGRHIRPHIYWGQGTQVTVGG
modifications: C-terminus covalently bound to the puromycin of the nucleic acid linker (linker carries biotin and fluorescein)
notes: as for B3
B5: R7-EのDNA断片にコードされるVHH抗体 (VHH)
VHH: B1 VHH with I92V, R99S
modifications: C-terminus covalently bound to the puromycin of the nucleic acid linker (linker carries biotin and fluorescein)
notes: as for B3

Experiments:
[1] = biological target: T1, サバイビンとカルモジュリンとの融合タンパク質 (catalogue no. SUR0801, ATGen) (Homo sapiens (Human), UniProt O15392 1-142, fluorescein-labelled when used as prey in the pull-down); assay: SPR, Biacore X100, fusion captured through biotin-CBP on SA chip, VHH 6.25-100 nM as analyte, single cycle
T1 construct: Bought fusion protein; Fluorescein-labelled in the pull-down; unlabelled and captured through biotin-CBP on the SA chip in the Biacore run; also called 融合タンパク質200; survivin-calmodulin fusion protein
T1 sequence (O15392 whole entry, the tested form may be a part): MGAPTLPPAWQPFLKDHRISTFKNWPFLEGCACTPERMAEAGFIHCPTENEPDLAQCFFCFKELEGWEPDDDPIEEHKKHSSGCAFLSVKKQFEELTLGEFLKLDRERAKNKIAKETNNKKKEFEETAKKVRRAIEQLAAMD

[2] = biological target: T2, サバイビン (antigen of the competitive ELISA) (UniProt O15392 1-142); assay: competitive ELISA: fixed VHH equilibrated with varied survivin, free VHH caught on antigen-coated plate, anti-His detection
T2 construct: also called サバイビン1010; 抗原
T2 sequence (O15392 whole entry): as the sequence (O15392 whole entry, the tested form may be a part) above

カルモジュリン = カルモジュリン (UniProt P0DP23 2-149); assay: pull-down with bead-bound VHH, fluorescein-labelled prey, SDS-PAGE

Binder	Kd [1] [nM]	Kd [2] [nM]	binding result (カルモジュリン)
B1	25.1	516	–
B2	–	–	no binding (tested: 200 nM)
B3	–	–	no binding (tested: 500 nM in the protein mix)
B4	–	–	no binding (tested: 200 nM alone; 500 nM in the protein mix)
B5	–	–	no binding (tested: 500 nM in the protein mix)
